In the DeepSol protein solubility set:

Assay: soluble on expression in E. coli; label from the status in PepcDB or PDB records

Soluble on expression in E. coli, not soluble:
MGSDKIHHHHHHMSRITDYGFLFQTTFGTSKTNLVNNIQLSQMNSSSVQKQLKAAGIDTNSKKYKAALSEMMKNGNGAMFTNVQAIKNLMSQYDKNGDWIDPNTGLTGLAVTDENRNSYKHIISIPESSREEMFELAKKEFLNENGTLNGDTTKRESVYNNLYRKMDKDDRLSAGWTMEQYEHQYRQAFAEAAKAADPTWKAGKPIPAGALDGITRESVESGKKSVDIKI
MGSDKIHHHHHHMSRMIRFHKFGAADVLRCEEQAEPSPAADEVQIRVEAVGVSWYDVLWRQNLAPSQARLPAGIGHEMAGVVTAVGEGVDDIAVGDRVASFPATSANDHPVYGDVIVLPRTAITRYPNVLTPIEASVHYTPLLIAYFAYVDLARAKAGQTALVTDASHCAGPAFVQLGRALGLKVFAATKEAAQRDYLLGLGADKVIVTEEQDLLLQIGKYTDGRGVDMVLDGMGGPQMSLLGDVLAPRGSLVLYGLQGGNQTPFPACAAFQKNIQFYVHCIGNFTGKPELGISQDQVALQRALRDINQFTADQLLTPQIIKVYPFEQVVEAHRYMDQCPCGGRVVLDMAQH
MGSDKIHHHHHHMSRNRPAPSGDQFDLFLPYVADMPMRDQREMMERPFFSLAKSKRVKPIDYTSPDGKLWVHVSGNPDYGMATIWDADILIYCASVLADMARRGVNDVPRKLHLMPYDLLRAIGRPTTGRAYELLGQALDRLVATTIKTNIRAENRREATFSWLDGWTQLVDEKTERSRGMTIELSNWFWEGVMMKGGVLSIDRAYFDITGGRERWLYKVARKHAGGAGEEGFAISMPVLFEKSGAEGEYRRFKFEILKLAEKNALPGYGLSVETARGGEPMLRMRRVDGKDGADRALPEAGRQGAEARTVASTAPDVSPGKHSSGASETVDVRALIRKTVAGVSDAATRGFMTDETIRHLRETCPGWDLHALHAEFESWVNGDSARLPANWQKAFIGWVKRHHEKNGHALRR
MGSDKIHHHHHHMSRPKILYFITEDWYFCSHRLPLALAARDAGYDVAVVTNVNEHADVIRRAGIRLIPFDLSRKGMNPASELAVLARLIALYRKEKPDIVHQVAMKPVLYGSLAARLSGVSRVVNALAGLGYIFTSDQPKARFLRPVIGSAFRGLLNSRRSRLILQNQDDRAKFIRKRFISEKRIRLIRGSGVDTAVFVPTPEPPGVPVVILPSRMLWDKGVREFVDAAGQLKKRGISARFVLVGDADPHNPSAIHTEQLTAWHAEGAVEWWGRRDDMPAVFEQSHIVCLPSYREGLPKVLLEAASCGRPIVTTDTPGCRDVVRQGENGLLVPVRGTAELADALQLLIEQPALRKKMGCKGREIVVSEFALEKVVAKTMNIYRELLKP
MGSDKIHHHHHHMSRTITIDPVTRIEGHATITIRLNDAGAVADARFHVTEFRGFERICIGRSIWEMPGITARICGICPVSHSISAARAGDAILGVEIPPAAVHLRRIANLASLIQSHALSFFHLSAADLLMGMDEEPSRRNLWGLVAHHPEVARGGIRLRQIGQKIVSDVAGESIHPSWAVPGGVREPLSPEGRDRIAALLPEGLAIVRGALGMLDGIYARHEAEITAYGDFPSLFAGLTASDGGLEHYDGSLRFTDSAGVHVDELSPEHYAQAVTERAEPWSYMTFPYYHPHGDREGGGMFRVGPLARLNICDRAGTPEADRELAAFRQVRGAGGMVTGSFHYHHARLIEILHALERIGMLLDEPDILDRHVRSEAGVNRPAGVGFCEAPRGTLFHDYEVDDDGIVSRVNLLIATGMNNLAINRTIRQVAAEFIRGGEFTEGILNRIEHGVRAYDPCLSCATHAYGRMPLRVMLLGPDGTVLDEAKRGR
MGSDKIHHHHHHMSRTTVLRSAESDLTLHGRDAMGTLMRTGTLTNFLKVAQQLDFDPQPLLRKLGLTKEMLADPECLIPGSASVTLLKESARLTQCPTFGLRVAERWQLSDLGVISVLLTHQSTLRDAVGTLIQYRHLLNEFLVIRMEDVGRKVIVREELVADEAGTSIQSTELVLGSLSRLCSTLMGATWHPLSVHFTHDPPPDLRLHRRVFGGKLEFASSFNGMICRAADMDFPNPIADPVMARHARRLLEGLPGAKEPSIVLEVRKAIYLLLPLGRATIEQVAQGLGMNVRMLQRQLESAGMVFSDMVNGVRRDLVIHYMDNKSYTLGRIAQSLGYSAYGSFVRWFAAQFGMTPTRWQSLRQQKEDGRSPIQIHC
MGSDKIHHHHHHMSSLQISQGTFRLSDTKTLHLDSLTLNAGDSWAFVGANGSGKSALARALAGELPLLTGERQCRFTRITRLSFEQLQKLVSDEWQRNNTDMLSPGEDDTGRTTAEIIQDDVHHPARCAILAQQFGISALLDRRFKYLSTGETRKALLCQALMSEPELLILDEPFDGLDVTARQQLAQRLTALNQAGMTLALVLNRFDEIPDFVQFAGVLADCTLAETGTTAELLQRALVAQLAHSERLTDVQLPEPDEPSARHALPDGEPRIVLNDGVVSYNDRPILHHLSWRVNPGEHWQIVGPNGAGKSTLLSLITGDHPQGYSNDLTLFGRRRGSGETIWDIKKHIGYVSSSLHLDYRVSTTVRNVILSGYFDSIGIYQAVSDRQRKLAQQWLDILGIDKRTADAPFHSLSWGQQRLALIVRALVKHPTVLILDEPLQGLDPLNRQLVRRFVDVLIRQGETQLLFVSHHAEDAPACITHRLEFVPEGERYKYVSGRCNN
MGSDKIHHHHHHMSSLTKMLLILDLFSVDKPIWSADEIIQYCGHSRPTGYRYVKELCDAGLLRRAEGGYSLGPRVIELDYYIRQCDPLLIACRPVMVRVAQESGCDVLLASMYGTKIMAVHQELAHETGQIAFGRGRPMPLFRGGGSKVLLASMTASQLKKLYDRYGAEIAEAGLGATWADFRKQMLKYRNDGHVVSIGELDPNAAGVAIPIPVGDALDPAALVILTTRSRFDLMEKALLVDMAMNAARQIETSMRGNREVQAKALLLS
MGSDKIHHHHHHMSSMSARNPFRPTFGVSPTVLAGRDSLLQSFKLGLAEGPGSPFRALLISGSRGMGKTVLLNEFEDAAASQGWITLRAYPDNSMVDGLVNSAIPEALQNLDGPQSKRMLSGVAIPGIATVTAIADPTKKDPTPTLISRLRELATRLQKHGSGILITLDELQSANVDLLHVLATAVQDLLRDDFDIALVAAGLPEGIDRLLQHEGTTFIRRAERILLNPVNHEDSVEMFLYTAAYGYRHMTSEAAELAAQISKGYPYSMQLTGSLAWARSTLDNSDTIQAEQVDAVRDEVVRRMGMQVHEPSLHQVPDGELTILYAIAQLSKNGEMVSTGDIAHLMGVKPNALSMQRKQLLSRGLVEVPKYGFLNFTLPYMREHLLNSPHHRPIT
MGSDKIHHHHHHMSSSAPIDYAALADRIHTWGRELGFQQVGITDTDLAAHERYLERWLAAGYHGEMHFMAKHGSKRTRPEELVPGTLRVVSVRMDYLPPEVETTKVLGQPERAYISRYALGRDYHKLIRKRLATLAKRIEDEVGAYGYRAFVDSAPVMERALAQKAGLGWFGKNAMLLNPQAGSLFFLGELYTDLPLPVDAPFDSEHCGKCSRCQTACPTGAIVDDKVIDSRRCISYLTIELAGSIPEEYREAMGNRVYGCDDCQLVCPFTRFTRVSREDDFAPRHDLDRASLVRLFAWSEEEFLARTEGSAIRRIGYERWLRNLAIGLGNAPWSDQVESALRARLAYPSDLVREHVRWGLEQQRRKRERRIASDVDAPAAPERSA
MGSDKIHHHHHHMSSSTTPDLLYPSADKVAEPSDNIHGDELRLRERIKDNPTNILSYFQLIQYLETQESYAKVREVYEQFHNTFPFYSPAWTLQLKGELARDEFETVEKILAQCLSGKLENNDLSLWSTYLDYIRRKNNLITGGQEARAVIVKAFQLVMQKCAIFEPKSSSFWNEYLNFLEQWKPFNKWEEQQRIDMLREFYKKMLCVPFDNLEKMWNRYTQWEQEINSLTARKFIGELSAEYMKARSLYQEWLNVTNGLKRASPINLRTANKKNIPQPGTSDSNIQQLQIWLNWIKWERENKLMLSEDMLSQRISYVYKQGIQYMIFSAEMWYDYSMYISENSDRQNILYTALLANPDSPSLTFKLSECYELDNDSESVSNCFDKCTQTLLSQYKKIASDVNSGEDNNTEYEQELLYKQREKLTFVFCVYMNTMKRISGLSAARTVFGKCRKLKRILTHDVYVENAYLEFQNQNDYKTAFKVLELGLKYFQNDGVYINKYLDFLIFLNKDSQIKTLFETSVEKVQDLTQLKEIYKKMISYESKFGNLNNVYSLEKRFFERFPQENLIEVFTSRYQIQNSNLIKKLELTYMYNEEEDSYFSSGNGDGHHGSYNMSSSDRKRLMEETGNNGNFSNKKFKRDSELPTEVLDLLSVIPKRQYFNTNLLDAQKLVNFLNDQVEIPTVESTKSG
MGSDKIHHHHHHMSTINNRNPKISVLMSIYKENSLYVRQAIDSILNQSFGDFEFLIYNDNPEDFILDKLVLEIARKDSRIQYQRNEKNIGLAATLNRQICVAKGEYLARMDADDISLPDRFIMQVEYLDRNTNIAVLGTWAKIIDKEGQVISSASLKTGYNNIIACAMCDSPLFHPSVMIRKEFLQLNGLSYNEDFSCAQDYELWSRILFEKGGYIDNLSVYLIYYRVTTSQISSIKQQQQIYNSLLVRRNNISFFLNKYSIDLPRKITKTDVCNLINRISEFKEESSTHKIYVNILFMYCMSLPRLEKIILLIKYVCVFYSEFSLKQMCLLVASSFFMRKFPLCSLNIMLH
MGSDKIHHHHHHMSTLDQSGTFHLAGRNIRRLGYGAMQLAGKGVFGPPKDREEAIAVVREAVDSGVNHIDTSDFYGPHITNQIIREALHPYADDLLIVTKVGATRGEDASWNAAFSKEELTQAVHDNLRNLGKEVLDVVNLRAMFDVHGPAEGSLAAPLEVLADLQRQGLIRHIGVSNVTPRQITEAGEIVEIVCVQNQYNLAHRQDDALIDTLAAQGIAYVPFFPLGGFSPLQSTVLSDVATQLDASPLQVALAWLLKRSSNILVIPGTSSRAHLRQNLAAASLDLPDSAMTALAAIGG
MGSDKIHHHHHHMSTPPVDVCYKVNAPLSSQQFVELLAKTSLGPRRPLDDETAITGMLKHANLLVSAWQGETLVGIARSVTDFHFCCYLSDLAVSDDFQHAGIGKKLIQQTAQQLGKGCKIILLAAPLAVDYYPKLGFEKHNSAWLMAASDLHSEA
MGSDKIHHHHHHMSVEQTYSWLRKAGSIDDLAHYIIPLFSGAEKKNWKGILGHLQHHGMFKNIKEGIQTVSKLKEKGFYGHIQKEEQYLKNKWQGPDVPIVTLPVDERNRRIRLEFGSKSGLAFQDKMFLFLSSDLDFGSVSALMTHEYHHVCRLGHLTKEEKDVTLLDTIIMEGLAEYAVYERFGRSQTAEWTTWYTPEQLQALYEKKIAPHRDIKRDNRLFPQLLFGKGYQPKMLGYAVGFNIVKKYLTASKASTADGLSIPAETFLDAML
MGSDKIHHHHHHMSVRNFMAYHQLSYTFLNHQKLPLIIQPQAKAEGNIDVLKQFLKEENTLFKEQLLNYGAIILRGFHVNTAEQFLEVIRSSDLGPNYSYDFCPIPRTQIRENIYTSINIHPSFNLALHNEKSYDQDFPSHIFFNCIHAPQTGGDTALADGNKIWFSLPKLLQKKLQSKGILYRRHYYGSGIQYKIIRSIGKNSGCMTWMERFQTDDQNKVEVMLQQMGVQFRWIQGNGLIIEQLLPACRNHPISGKLVWFNQSNHANHYYNGTSDYIKSKINNTFSRFILLHKYFHPYIAFYGDGEPLSKQEADCINSAIQKNTVSTAWQPGDVMIVDNFSCLHGKTPHTGNRLILVGLTKYFD
MGSDKIHHHHHHMSVSSTIEWTEATWNPTTGCHKISPGCKNCYAERFAERWRGVAGHPYEQGFDVKTWHERLKMPLSWKKPRLIFVNSMSDLFLDDISEEFIKDVFNVMEEASWHQFQVLTKRPQRMLKIANSIKKWPSNIWAGVSIESQAWVWRSEILKEIPAKIRFLSCEPLLGSLTLSLDELHWIIVGGESGVGARPMNIEWVRDIREQCIQANVPFFFKQWGGIQKKKYGREIDGRTWDGFPETIVDKNTKQVSPVK
